From patent publication US20110244493A1 (COMMONWEALTH MEDICAL COLLEGE, published 2011)

Molecular target: T1, cytoskeletal associated protein 4 (CKAP4), endogenous in HeLa or normal bladder epithelial cells (Homo sapiens, UniProt Q07065 1-602, reversibly palmitoylated on cysteine 100)
T1 sequence: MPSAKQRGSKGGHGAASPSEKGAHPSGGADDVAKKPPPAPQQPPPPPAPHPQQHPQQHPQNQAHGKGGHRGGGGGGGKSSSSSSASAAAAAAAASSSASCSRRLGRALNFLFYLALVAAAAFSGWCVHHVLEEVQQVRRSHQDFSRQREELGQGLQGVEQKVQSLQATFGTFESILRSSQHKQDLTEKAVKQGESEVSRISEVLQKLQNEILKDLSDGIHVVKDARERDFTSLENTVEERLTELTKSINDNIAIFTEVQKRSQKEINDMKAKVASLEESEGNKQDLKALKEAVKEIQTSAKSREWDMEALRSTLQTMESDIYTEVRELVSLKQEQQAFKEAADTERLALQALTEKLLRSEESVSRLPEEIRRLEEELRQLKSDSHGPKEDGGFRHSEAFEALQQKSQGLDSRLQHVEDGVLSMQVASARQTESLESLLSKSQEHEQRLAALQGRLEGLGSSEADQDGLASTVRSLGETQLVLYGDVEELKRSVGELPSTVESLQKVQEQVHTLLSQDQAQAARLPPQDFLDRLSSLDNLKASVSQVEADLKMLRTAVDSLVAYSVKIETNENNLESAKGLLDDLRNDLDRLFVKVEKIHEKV
Experiment: cell-based or functional assay

abundance of CKAP4 in the nucleus (nuclear fractionation and Western blot, HeLa cells): 5 fold
B1: antiproliferative factor (APF), synthetic (peptide)
peptide: TVPAAVVVA
modifications: sialic acid α-2,3 linked to galactose P1-3-N-acetylgalactosamine, which is α-O-linked to the N-terminal threonine residue of the nonapeptide (printed as '3 carbohydrate moieties-T-V-P-A-A-V-V-V-A')
